Source: the supplement of paper PMC6757056
± gives the standard deviation of the averaged measurements.

B1: library; a variant is named by its letters at N, in order (parent)
chain: GCUGUCACCGGUGUAUUACCCUAGUGGUCGACCGGUCUGAUGAGUCUNNNNNNAGACGAAACAGC

Assays:
[1] = variants of: B1; assay: FACS-Seq fitted mean relative fluorescence mCherry/BFP without ligand (log10 relative fluorescence); ligand: hypoxanthine (xanthine aptamer); higher = higher reporter protein expression; details: HEK293T, ligand present: no
Procedure, shortened: (§1)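 Fluorescence is reported as a normalized fitted mean of sorted-bin read counts. Lentivirally transduced HEK293T libraries (mCherry ribozyme-switch reporter, EF1α-BFP marker) were enriched, treated with or without ligand for 48 h, and sorted into 6 mCherry/BFP bins for MiSeq sequencing of PCR-amplified genomic DNA. The normal fit was on log10(mCherry/BFP), scaled to five spiked-in control ribozymes.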

[2] = variants of: B1; assay: normalized RNA/DNA level with ligand (relative to sTRSVctl = 100) (log10 (% of sTRSVctl)); ligand: hypoxanthine (xanthine aptamer); higher = less ribozyme self-cleavage, higher mRNA level; details: ligand concentration (+) RNA-Seq: 5 mM, HEK293T, reporter: mCherry (pCS4076), ligand present: yes
Procedure, shortened: (§2)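 For each 6-well well, 4 µg of library plasmid encoding mCherry-linked ribozyme switches, or eGFP-linked ones in some ligand experiments, was transfected into HEK293T. Any ligand was added 1 h before transfection, and RNA was extracted with EDTA 72 h after it, then reverse-transcribed, amplified, barcoded and sequenced. RNA level was obtained by dividing RNA reads by DNA reads, normalizing to a spiked-in non-cleaving sequence or to the top sequences, then scaling and log-transforming. The top set was 25 sequences, scaling was ×100 with log10, and ≥100 DNA reads were required.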

[3] = variants of: B1; assay: normalized RNA/DNA level without ligand (relative to sTRSVctl = 100) (log10 (% of sTRSVctl)); ligand: hypoxanthine (xanthine aptamer); higher = less ribozyme self-cleavage, higher mRNA level; details: HEK293T, reporter: mCherry (pCS4076), ligand present: no
Procedure, shortened: as §2

[4] = variants of: B1; assay: FACS-Seq fitted mean relative fluorescence mCherry/BFP with ligand (log10 relative fluorescence); ligand: hypoxanthine (xanthine aptamer); ligand concentration (+) FACS-Seq: 5 mM; higher = higher reporter protein expression; details: HEK293T, ligand present: yes
Procedure, shortened: as §1

| Variant | FACS-Seq fitted mean (log10) [1] | normalized RNA/DNA level with ligand (log10) [2] | normalized RNA/DNA level without ligand (log10) [3] | FACS-Seq fitted mean (log10) [4] |
| --- | --- | --- | --- | --- |
| AGCCCG | -0.024 ± 0.027 | 1.956 ± 0.0061 | 1.61 ± 0.087 | 0.388 ± 0.038 |
| AGCCCA | 0.0335 ± 0.1 | 1.923 ± 0.018 | 1.88 ± 0.025 | -0.145 ± 0.064 |
| UGGCUU | 0.674 ± 0.017 | 1.97 ± 0.02 | 1.94 ± 0.03 | 0.66 ± 0.06 |
| UGGCUG | 0.218 ± 0.011 | 2.02 ± 0.0097 | 1.95 ± 0.04 | 0.298 ± 0.023 |
| CGCGCC | 0.276 ± 0.055 | 1.93 ± 0.021 | 1.96 ± 0.044 | 0.445 ± 0.033 |
| CGGCAU | -0.119 ± 0.0088 | 1.9 ± 0.037 | 1.56 ± 0.1 | 0.0858 ± 0.0049 |
| GGGGGU | 0.334 ± 0.062 | 1.935 ± 0.0072 | 1.86 ± 0.02 | 0.316 ± 0.064 |
| GGGGGC | 0.564 ± 0.051 | 1.85 ± 0.06 | 1.51 ± 0.023 | 0.468 ± 0.037 |
| AGGCGU | 0.521 ± 0.063 | 1.94 ± 0.02 | 1.67 ± 0.025 | 0.656 ± 0.01 |
| AGGCGG | 0.194 ± 0.017 | 1.841 ± 0.0031 | 1.354 ± 0.01 | 0.536 ± 0.039 |
| UGGAAU | -0.0639 ± 0.013 | 1.887 ± 0.0035 | 1.659 ± 0.0056 | 0.205 ± 0.02 |
| UGCUAU | 0.535 ± 0.025 | 1.93 ± 0.023 | 1.88 ± 0.028 | 0.662 ± 0.05 |
| AGCUGA | 0.203 ± 0.08 | 1.91 ± 0.043 | 1.74 ± 0.067 | 0.0306 ± 0.017 |
| AGCUGC | 0.448 ± 0.0077 | 2 ± 0.035 | 1.87 ± 0.076 | 0.755 ± 0.036 |
| AGCUGG | -0.403 ± 0.022 | 1.91 ± 0.069 | 1.57 ± 0.035 | -0.291 ± 0.096 |
| UGGCGA | 0.345 ± 0.039 | 1.94 ± 0.031 | 1.65 ± 0.034 | 0.579 ± 0.11 |
| GGCAGC | 0.306 ± 0.06 | 1.921 ± 0.012 | 1.603 ± 0.0027 | 0.651 ± 0.043 |
| GGCAGU | 0.196 ± 0.14 | 1.98 ± 0.04 | 1.85 ± 0.046 | 0.205 ± 0.0051 |
| GGCAGA | 0.082 ± 0.022 | 1.921 ± 0.0091 | 1.51 ± 0.065 | 0.449 ± 0.062 |
| GGCCGU | 0.465 ± 0.071 | 1.95 ± 0.034 | 1.945 ± 0.014 | 0.502 ± 0.0071 |
| AGCAUA | 0.318 ± 0.075 | 1.9 ± 0.044 | 1.82 ± 0.02 | 0.286 ± 0.19 |
| AGCAUG | 0.201 ± 0.012 | 1.87 ± 0.079 | 1.4892 ± 0.001 | -0.275 ± 0.19 |
| AGCAUU | -0.328 ± 0.0053 | 1.92 ± 0.065 | 1.86 ± 0.057 | -0.19 ± 0.0097 |
| UGGAUG | 0.4451 ± 0.0015 | 1.92 ± 0.025 | 1.659 ± 0.0063 | 0.341 ± 0.018 |

| Variant | FACS-Seq fitted mean (log10) [1] | normalized RNA/DNA level with ligand (log10) [2] | normalized RNA/DNA level without ligand (log10) [3] | FACS-Seq fitted mean (log10) [4] |
| --- | --- | --- | --- | --- |
| UGGAGU | 0.221 ± 0.061 | 1.78 ± 0.019 | 1.32 ± 0.051 | 0.602 ± 0.023 |
| UGGAGC | 0.45 ± 0.088 | 1.959 ± 0.019 | 1.707 ± 0.01 | 0.69 ± 0.031 |
| UGGAGA | 0.259 ± 0.025 | 1.791 ± 0.0083 | 1.33 ± 0.092 | 0.644 ± 0.0081 |
| UGGAGG | 0.223 ± 0.0051 | 1.73 ± 0.018 | 1.26 ± 0.072 | 0.592 ± 0.036 |
| AGCCUG | 0.523 ± 0.04 | 1.92 ± 0.059 | 1.5724 ± 0.00079 | 0.67 ± 0.037 |
| AGCCUU | 0.466 ± 0.071 | 1.97 ± 0.022 | 1.933 ± 0.0025 | 0.317 ± 0.091 |
| AGCGUG | 0.152 ± 0.014 | 1.798 ± 0.014 | 1.37 ± 0.042 | 0.398 ± 0.032 |
| AGCGUC | 0.8 ± 0.033 | 1.971 ± 0.0074 | 1.966 ± 0.01 | 0.743 ± 0.075 |
| CGGGUA | 0.436 ± 0.033 | 1.94 ± 0.044 | 1.82 ± 0.068 | 0.64 ± 0.015 |
| GGGGUA | 0.00434 ± 0.0088 | 1.94 ± 0.064 | 1.837 ± 0.0033 | 0.179 ± 0.094 |
| CGCUAG | 0.118 ± 0.0022 | 1.89 ± 0.063 | 1.79 ± 0.051 | 0.183 ± 0.14 |
| GGGAUG | 0.0328 ± 0.0034 | 1.79 ± 0.043 | 1.323 ± 0.0058 | 0.564 ± 0.02 |
| CGGGGC | 0.7 ± 0.032 | 1.95 ± 0.021 | 1.896 ± 0.017 | 0.628 ± 0.0078 |
| CGCUGA | 0.643 ± 0.033 | 1.9529 ± 0.00012 | 1.89 ± 0.03 | 0.635 ± 0.0074 |
| CGCUGC | 0.163 ± 0.06 | 1.98 ± 0.096 | 1.95 ± 0.083 | 0.518 ± 0.079 |
| CGCGUA | 0.477 ± 0.0013 | 1.95 ± 0.041 | 1.81 ± 0.067 | 0.659 ± 0.013 |
| UGGGGA | 0.00194 ± 0.046 | 1.88 ± 0.041 | 1.48 ± 0.029 | 0.376 ± 0.0086 |
| GGGCAA | 0.0453 ± 0.045 | 1.963 ± 0.0095 | 1.783 ± 0.013 | 0.266 ± 0.015 |
| GGGCAG | 0.0036 ± 0.061 | 1.881 ± 0.013 | 1.5894 ± 0.0015 | 0.434 ± 0.012 |
| GGGCAU | -0.045 ± 0.015 | 1.933 ± 0.012 | 1.83 ± 0.075 | 0.103 ± 0.018 |
| AGGGCG | 0.511 ± 0.024 | 1.91 ± 0.028 | 1.57 ± 0.1 | 0.709 ± 0.089 |
| AGGGCA | 0.0731 ± 0.046 | 1.97 ± 0.02 | 1.815 ± 0.016 | 0.174 ± 0.034 |
| GGCGGA | 0.416 ± 0.079 | 1.98 ± 0.043 | 1.837 ± 0.013 | 0.534 ± 0.03 |
| GGGCUA | 0.512 ± 0.024 | 2.01 ± 0.015 | 1.943 ± 0.015 | 0.456 ± 0.011 |

| Variant | FACS-Seq fitted mean (log10) [1] | normalized RNA/DNA level with ligand (log10) [2] | normalized RNA/DNA level without ligand (log10) [3] | FACS-Seq fitted mean (log10) [4] |
| --- | --- | --- | --- | --- |
| GGGCUG | 0.228 ± 0.058 | 1.967 ± 0.0031 | 1.775 ± 0.0099 | 0.495 ± 0.026 |
| UGGACG | 0.639 ± 0.083 | 1.96 ± 0.082 | 1.68 ± 0.048 | 0.676 ± 0.22 |
| AGCGCG | 0.0574 ± 0.015 | 1.91 ± 0.083 | 1.43 ± 0.051 | 0.359 ± 0.012 |
| AGCGCU | 0.228 ± 0.049 | 1.93 ± 0.032 | 1.85 ± 0.028 | 0.22 ± 0.0027 |
| GGCCUG | 0.145 ± 0.02 | 1.99 ± 0.062 | 1.809 ± 0.013 | 0.239 ± 0.046 |
| GGCUCA | 0.301 ± 0.011 | 1.98 ± 0.031 | 1.91 ± 0.074 | 0.297 ± 0.024 |
| AGGAAC | 0.573 ± 0.093 | 1.91 ± 0.042 | 1.66 ± 0.039 | 0.568 ± 0.099 |
| AGGAAG | -0.0152 ± 0.00091 | 1.63 ± 0.038 | 1.11 ± 0.055 | 0.161 ± 0.026 |
| AGGAAA | 0.102 ± 0.031 | 1.87 ± 0.019 | 1.56 ± 0.037 | 0.42 ± 0.058 |
| AGCUAC | -0.583 ± 0.06 | 1.96 ± 0.058 | 1.778 ± 0.0088 | -0.175 ± 0.051 |
| GGGGAG | -0.274 ± 0.0067 | 1.812 ± 0.0043 | 1.46 ± 0.013 | -0.0598 ± 0.036 |
| GGGGAA | 0.623 ± 0.047 | 1.91 ± 0.032 | 1.66 ± 0.022 | 0.751 ± 0.032 |
| AGGAGU | 0.142 ± 0.026 | 1.8 ± 0.024 | 1.37 ± 0.03 | 0.537 ± 0.073 |
| AGGAGA | 0.176 ± 0.052 | 1.78 ± 0.049 | 1.28 ± 0.033 | 0.621 ± 0.034 |
| AGGAGC | 0.421 ± 0.0061 | 1.883 ± 0.003 | 1.485 ± 0.0035 | 0.5478 ± 0.0022 |
| AGGAGG | 0.0646 ± 0.011 | 1.584 ± 0.0034 | 1.186 ± 0.0034 | 0.626 ± 0.055 |
| UGGCAG | 0.155 ± 0.013 | 1.91 ± 0.045 | 1.69 ± 0.045 | 0.563 ± 0.052 |
| UGGCAU | 0.353 ± 0.011 | 1.95 ± 0.06 | 1.755 ± 0.014 | 0.465 ± 0.046 |
| AGCUCG | 0.177 ± 0.0048 | 1.931 ± 0.0082 | 1.63 ± 0.11 | 0.448 ± 0.0069 |
| UGCGGC | 0.67 ± 0.028 | 1.98 ± 0.035 | 1.9 ± 0.071 | 0.708 ± 0.037 |
| UGCGGA | 0.465 ± 0.014 | 1.87 ± 0.056 | 1.518 ± 0.0062 | 0.733 ± 0.033 |
| CGCCAG | 0.462 ± 0.027 | 1.99 ± 0.051 | 1.84 ± 0.12 | 0.537 ± 0.0082 |
| AGCGGG | 0.579 ± 0.16 | 1.9573 ± 0.00092 | 1.754 ± 0.0053 | 0.732 ± 0.094 |
| AGCGGA | 0.427 ± 0.044 | 1.945 ± 0.0055 | 1.71 ± 0.036 | 0.456 ± 0.021 |
